The source of these data is the DeepSol protein solubility set.

This series is described as follows: soluble on expression in E. coli; label from the status in PepcDB or PDB records.
Regarding “MSLIKVIDAHVHYHIYARKIPEHCKEFLENVEGTRMTLKNDNVEIEKILLVPSHPCHSEDCYDGFYIDYEERKRNPDLYMQWGEVNPLKCDVKRELERQYSLGIIGIKLHPVHHTFKPNAYREEEGGLKQLLYIYEFAEDHGLPILIHTGTSIGVGSRNKYADPIYADDIAKDFPKLRIILAHAGRPLWYNTAFHMARFTQNIFLEISSIPPKNILKVLPRIHEISDKVIYGSDFPAFKGQDLAEYAYQVYNVLKNEKIMRDNAKRILKISEGHHHHHH”, the “soluble on expression in E. coli” value is “not soluble”.

Take “MSLIKWGFIGCGEVTKTKSGPAFQKVEHSEVVAVMSRDGAKAKAYAKERGIRKWYDDAQELIDDPEVNAIYIATPPSSHATYAIMAMKAGKPAYIEKPMAVTYEECTRINRISKETGVPCFVAYYRRYLPYFQKVKEMVENGSIGNVINVQVRFAQPPRDLDYNRENLPWRVQADIAGGGYFYDLAPHQIDLLQDMFGCILEASGYKSNRGGLYPAEDTLSACFQFDNGLVGSGSWCFVAHDSAREDRIEIIGDKGMICFSVFTYEPIGLHTERGREEICIGNPEHVQQPLIQAVVDHLLGKSVCSCDGESATLTNWVMDKILGKLEGHHHHHH”: the “soluble on expression in E. coli” value is “soluble”.

In the case of “MSLILVTGHRGFIGSHIYSYFNGNSEVYGFDIGDKLEDRRYDVIIHMAARGLIRKSIEFPYDYFQDDLSLVVRFLELARKNDSVFIFPSSGSTAEPTNPYSLAKKNAEEWIRLYGKLYGLKYYILRFFNIYGDGAKKGAVYLFTKAALSGEEAIVYGDGSHIRDFLYVGDVPITIERILNEKYRTGEYEVGSGKGTSVNDLISLIEKVTGKKIRTRHEDYIVPEASELVAKNTIVKNPTPLEVGVERVMEFILKDNEGHHHHHH”, the “soluble on expression in E. coli” value was “soluble”.

For “MSLINEATLAESIRRLRQGERATLAQAMTLVESRHPRHQALSTQLLDAIMPYCGNTLRLGVTGTPGAGKSTFLEAFGMLLIREGLKVAVIAVDPSSPVTGGSILGDKTRMNDLARAEAAFIRPVPSSGHLGGASQRARELMLLCEAAGYDVVIVETVGVGQSETEVARMVDCFISLQIAGGGDDLQGIKKGLMEVADLIVINKDDGDNHTNVAIARHMYESALHILRRKYDEWQPRVLTCSALEKRGIDEIWHAIIDFKTALTASGRLQQVRQQQSVEWLRKQTEEEVLNHLFANEDFDRYYRQTLLAVKNNTLSPRTGLRQLSEFIQTQYFDEGHHHHHH”, the “soluble on expression in E. coli” value is on record as “soluble”.

For “MSLINPIDPAARRPQTTVQPSTPPQAKPKPLAATQVLPAQSVLNLAQSELGTDMQELGSIFPVEESCAETLENMSFALGTQARERMRGLSSSADRARPRSMMQRLAKQVSATAPDHLEELRQRVPGIEAVEEVDDLLNSLRQHQFDAGEMALLLAAMLGKDGLSPTRRRRLEEALDRVMDDEDWALQLFSHLEFGAVGKSGLAELRRLYQRAASRQSGLVYWFGQFRQMDDRQRKLKTLIRALAFELSAQGGATDIRLAAVITDLKRVLQFLGMEDHCDRVAKALAIPELDGNRIIEELLEIIQQSWVYPDWLSSRADALMPEEHSRHGYARRMGELVKLLPDDCFEDIDQRETILAAFLEYQEQLADEEEGHHHHHH”, the “soluble on expression in E. coli” value was “soluble”.

On to “MSLIQLRPCPKSYTRDQDKATTPAETVRRVRERLASLDISILAETRRVDVGRLGIPVFLSVCGADARAVMPTRKQMGKGASLEQAQASALMELMERYSFFTFWRDMPGMVEATWSEARNRFGDALIPVDEILHSVHDTLSPDDAVRALDLWRWKFFPATDITHGREVWLPLDWFKKLGEFNGSSAGNTEEESILQGSCELVERHVCCLIDRTQPELPTIDPASLDDPVLLELAAAFERNGIRLVLKDFSMGMPVPTVGAIAWDPATFPERSEIVYTAGTSSSPVKAAIRAVTEVAQLAGDFCTGACYEASGLSKYESLDDIAWLVAGPVVALDTLPSVETDDIRDELAALCDGLAATGHTLYSVSTMNPDVGVNTHYNIVPGFHFRERDRNAEGHHHHHH”, for which the “soluble on expression in E. coli” value is on record as “not soluble”.

Take “MSLIRVSSAVQRHAQKLIVLFSLLFGASLLMSDNGFATDIKNTNASSPVNSESTKPTKAGEVKNVVRFAKTGSFDNDTVVRLARQLAKKPYVALKDPLPESLANISYDEYRDIRFKPDSAVWKADGLPYQMQLFHRGFFFQDLIEIALVEGNQATHLSYDPNMFTAGEVLQQNLPTEDIGYSGLRVHYPLNSPSYFDELFVFQGASYFRALGKGNAYGLSARGLAIKTADPAGEEFPIFRAFWVEKPNYDTNLIVVHALLDSPSVSGAYRFSIRPGENTRMDVEAVLFPRVELSKVGLAPATSMFMHSPNGREKTDDFRPSVHDSDGLLMINGRGERLWRPLANPSTLQVSAFMDNSPQGFGLMQRERDYANYQDLEAHYEKRPSLWVEPVGNWGPGAVVLTEIPTQSEIHDNIVAFWKPAQPLAAGSEYRFSYHLNWGAQPEANPQAITVSRTASGRADIAKPTPKRLFVIDYQVQGAKPAQMPEPKVRSNAGVISNVVLRDNPANNGYRLSFEFDPGEVTLAELRAELTLQEARPVETWLYRWTLEGGSHHHHHH”: the “soluble on expression in E. coli” value is given as “soluble”.

For “MSLITLKELAKQLNVSVSTVSKALHDAKDISEGTKKRIKEAAQLYNYRPNKTALALKVNKTNTIGVIIPDILNPFFAQVLHGIEDYATEHNYDTIVCVSHDQLKKEAQSLDLLMQGRVDGFILSLSSESLAQDNFLHIDQIALNKKGLVLFDRTTDQVDCDKVVIDDKRSVYDATRILISKGKTKIAFVSNIEDLNLGQLRKEGYENALRDHGIEVNYSLNLDLTGSSDPHGLIKAFLSMQEIDGVISADNTSSLMFKSILKSERPDTNSEIPLIGFSDEKNSLLSYPRIDYIDQNAMKIGSKAAELLINRLESKDLTSKPITFEMPTEIHLYEGHHHHHH”, the “soluble on expression in E. coli” value is recorded as “soluble”.

Regarding “MSLITLPKISLIGSNIAKEGLEFVFAGPLAACSDCRVKNVCFNLEQGHRYRVTKVREQVNPCIIFNGDKVNTVEVEELEDYVNVQESKRIQEGAIITLKSMNCDYITCPNIEKCNLYYFKPDSKVMVKSIGKEIKCPKGYKMKQVAITYKEGHHHHHH”, the “soluble on expression in E. coli” value was “not soluble”.

Regarding “MSLKAIIDNIKILEQNAINKGLDELILMENAGLNLAKLIKKEAKKIRIQRKIRKVKILFLLGGGNNASDGLVALRNLKHAKAYKIGFKENTLFKKQEQILQNYAFKFCKKEPNFKKFHIIIDCILGTGSNRCLDEKTSLIIQKVNQSKALKIACDIPTNLGFYPCFKADITFCMGALKEILLEDFAKEFVGRIKIANLGIRSKKFYPNSQAFLLEKKDLKTIDRKINANKGNFGHIYIVANASAGTLAGLGALNFGAGLVSLVAQKSFSPLLMLKEKIENNASAIALGMGLENLDFLKDEILQNTPLILDANCFLSEALLWYLNRKDVVITPHPKEFIKLYKMCFDENLDIETLQKNRFFYARKFSQNYDCVLVLKGANPIIVQKEKLFVVNLGNQALAKGGSGDVLSGMIAAHLGFGFSALEAAKNATLAHGLVAKKYKFNKNSFDALKLIKGLKCLEGHHHHHH”, the “soluble on expression in E. coli” value is “soluble”.

Regarding “MSLKDEYTTSFGIRTIEVIPNKGFFLNGKRTSFKGVCNHHDLGPLGGAVNDAAIRRQIRILKDMGCNAIRTSHNMPAPELIRACDEMGMMVMAESFDEWKAMKVKNGYRHVFDEWAVKDLTNLLRHYRNNPSVVMWCIGNEVPEQWDGNKGPKMSYFLQELCHREDPTRPVTQGMDAPDAVVNNNMAAVMDIAGFNYRPHKYQENYKKLPQQIVLGSETASTVSSRGVYKFPVTRQWMKKYDDHQSSSYDVESCSWSNLPEDDFIQHEDLPYCIGEFVWTGFDYLGEPTPYYTDWPSHSSLFGIIDLAGLPKDRYYLYRSHWNKEQETLHILPHWNWEGREGEITPVFVYTNYPSAELFINGKSQGKRTKDLSVTIDNSADSVSIMNLKRQSRYRLMWMDTKYEPGTVKVVAYDADGKAVAEKELHTAGKPDHIELVADRNVIKADGKDLSFVTVRVVDRDGNLCPDASHEISFKVKGEGSYRAGANGNAASLESFQHPKMKVFSGMMTAIVSSTEQPGKITLEATGKGLKKGALIIESCQEAKEGHHHHHH”, the “soluble on expression in E. coli” value is reported as “not soluble”.

For the sequence “MSLKDGTFQIAIFSDMHFGQYESTTGPEQDRNSVEVLNKVLDYDTPDLVVLNGDLINGDSTWKHNSTHYIDMIVEPMVNRSLTWASTYGNHDHNYNINGDDILVREQMWPGARTQKMVNKTRSGTTNYYLPVYPSDCSNTSDCSPQMILWFFDSRGGNYYQGSWQENWVDQSVVDWFNETSTELTSKHNKTIPSLAFVHVPPNATVALQTELGIRKNNQPGINDDPPVPQQGYGWCADGTPTYDCPYGGQDIPFMEALVTIPGIIGLFYGHDHGNTWCYRWDTKLDGMDIEGNGIHLCYGQHSGYGGYGDWIRGAREIVVTEDMLEKNEVETYIRLESGDVVGKVMLNSTYNEGHHHHHH”, the “soluble on expression in E. coli” value is listed as “not soluble”.

Turning to “MSLKDNEKYNALDFIKDDEINSLIAKGKELVSDKELVREIIEKSKSAEGLTPEETAVLLNLEDKELIEEMFKAARQVKEKLYGKRLVVFAPLYVSNYCVNNCTYCGYKHCNDELKRKKLNKEQLIEEVKVLESLGHKRIALEAGEDPVNAPLDYILDCIKSIYSIKFDNGSIRRINVNIAATSVEDYKRLKDAEIGTYILFQETYHKPTYERLHVSGPKHNYNYHTTAMHRAREAGIDDIGMGVLYGLYDYKYETLAMLMHAMDLEETTGVGPHTLSVPRIRPAENVSLENYPYLVDDEDFKKIVAILRLAVPYAGLILSTREEPGLRDEIIALGVSQVSTGSCTGVGGYSESYIDPEEKPQFEVGDHRSPVEMIESLMEAGYIPSYCTACYREGRTGERFMDIVKSGELYKICEANALITLKEFIDDYGTDRTREIGDKLIKKSIDEIDNESFRKSVEEKINKISNGTRDLRFEGHHHHHH”, the “soluble on expression in E. coli” value is reported as “soluble”.

“MSLKEAEVLKYEAFTSSPGKGNPAGVVLQGDDYTEDEMQIIAERAGYSETSFIRKSESADLELRYFTPGHEMNLCGHATVASLYALCEKGMLESGKTYSIQTKAGILPVKISEKDGRIHITLEQASPQFKPFTGDRKKLADALGITDEDFHEDLPIVFGSTGIWTAIVPLKSLEASKKMVPDNKQFPEVLVDLPKASVHPFTFETVHPDSDLHGRHFSSPYSGTIEDPVTGTASGVMGAYMKHYGNAEQHKFIIEQGQEIGKDGKVEIEMNEAGGHVKVNMTGTAVYSETRILKIEGGSHHHHHH”: the “soluble on expression in E. coli” value is “soluble”.

For “MSLKEEEIQNDFMFEEYHKGDKIVLNSVNGGSKTLIRTDKGFVVEGEEGKVLMFDFFGTFCTPCKEEALDLSKLWKNNSSKFIIIGLTHFEDVSDETVKKFAGDYGAYYFLSNGSSNDRIIAQILKDIDYQNMEQLPFKVVLKNGIYQKISDYWNNNTPTNFYLGKIPTELMQEDLNKIYKGKEGHHHHHH”, the “soluble on expression in E. coli” value was “soluble”.

“MSLKEKSVINAVKAEILVEKLVDKLMKEQELNPSEDILRAYYEFYKREFYRPSSVKLLGIYVKSKKEAERISQILKQGEVPSTEDVKVSKPLWYSIPTLPKYIRRNFRTLSVGEVSKPIKINDGYLVFKILDKKPAGFIPFERAKSLVKKMYLKEKRKEVFKKWLSEVLKKYQVRSTGKTCNTFISRFFFRKVNRQGEGHHHHHH”: the “soluble on expression in E. coli” value is recorded as “not soluble”.

Turning to “MSLKETEIIKLFQEELKSKVLGDDAGFIKLGDRWLLLTNDMLVWRTDVPDFMTPEEAGAKVVTMNVSDIAAMGGKPIGFFFSLGLPRDINEKTLREIAKGIKRGTKRYNVEVLSGDTNESNELVIDGGAIGEAERILLRSGAKPGEVVCVTGDLGRPLTALLLWLKGEKIPREIAEKMKNPIARVREGLELANYASSAIDISDGLSKELWEISKASKVKIVIDPNSLPVHEKVKEIVKNPVEVALASGEEFELVFTISQEYLDILSFEFSIIGRVEKGEGVYTTTGEKVPMRGWEHFAGGNNDIGSEGHHHHHH”, the “soluble on expression in E. coli” value was “soluble”.
